Measurements as given in paper PMC10992053, “Rationally introducing non-canonical amino acids to enhance catalytic activity of LmrR for Henry reaction” (Bioresources and Bioprocessing, 2024).

System: O=Cc1ccc([N+](=O)[O-])cc1
Assay: Henry reaction, product by HPLC, Michaelis-Menten fit
Assay type: biochemical, Lactococcus cremoris
Conditions: nitromethane 1 M (excess), 3-18 mM aldehyde, 0.3 mg/mL enzyme, 40 °C, 5 min
Description: Henry reaction, product by HPLC, Michaelis-Menten fit on LmrR (Lactococcal multidrug resistance Regulator)

LmrR (Lactococcal multidrug resistance Regulator) (Lactococcus cremoris subsp. cremoris MG1363; V15F)
Km: 8.28 mM | Vmax: 1960 µM/min | kcat: 1.47 s⁻¹ | kcat/Km: 178 M⁻¹ s⁻¹
